Data reported in US6632626.

Key:
[1] = target: rat brain farnesyl:protein transferase (rat) (UniProt Q04631); assay: cell-based or functional assay

CVIM with glutamic acid at the A2 position (peptide)
fold decline of affinity for the enzyme [1]: > 50 fold

CVIM with lysine at the A2 position (peptide)
fold decline of affinity for the enzyme [1]: > 50 fold | fold decrease of affinity for the enzyme against CVIM [1]: > 30 fold

CVIM with glycine at the A2 position (peptide)
concentration giving 50% inhibition (farnesyl transfer to p21^H-ras) [1]: 8 µM

rat brain farnesyl:protein transferase
farnesylation of the peptide (substrate activity) (biotinylated KTSCVIM): The studies with the biotinyated heptapeptide ( FIG. 12B ) confirm that at least some of the short peptides act as substrates for the enzyme
